One block for each binder: values may come before it.
Legend:
[1] = target: T1, Recombinant Human MSP Receptor ECD-His tag (human, UniProt Q04912 25-957); assay: SPR (Biacore), N-terminal VD;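 further: capture of antibodies or DVD-Ig proteins on an anti-mouse IgG chip surface, recombinant antigen injected at 10–200 nM in HBS-EP running buffer at 25 °C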
T1 construct: extracellular domain; bought reagent; also called RON

[2] = target: T2, Recombinant Human ErbB3/FC Chimera-His tag (human, UniProt P21860 20-643); assay: SPR (Biacore), C-terminal VD;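 further: surface plasmon resonance with DVD-Ig proteins captured on an anti-IgG chip and recombinant antigen flowed over in HBS-EP buffer, Langmuir global fit, KD taken as koff/kon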
T2 construct: bought reagent
Protocol: The BIACORE assay (Biacore, Inc, Piscataway, N.J.) determined the affinity of antibodies or DVD-Ig proteins with kinetic measurements of on-rate and off-rate constants. Binding of antibodies or DVD-Ig proteins to a target antigen (for example, a purified recombinant target antigen) was determined by surface plasmon resonance-based measurements with a Biacore® 1000 or 3000 instrument (Biacore AB, Uppsala. Sweden) using running HBS-EP (10 mM HEPES [pH 7.4], 150 mM NaCl, 3 mM EDTA, and 0.005% surfactant P20) at 25° C. […] For example, approximately 5000 RU of goat anti-mouse IgG, (Fcγ), fragment specific polyclonal antibody (Pierce Biotechnology Inc, Rockford, Ill.) diluted in 10 mM sodium acetate (pH 4.5) was directly immobilized across a CM5 research grade biosensor chip using a standard amine coupling kit according to manufacturer's instructions and procedures at 25 μg/ml. Unreacted moieties on the biosensor surface were blocked with ethanolamine. Modified carboxymethyl dextran surface in flowcell 2 and 4 was used as a reaction surface. Unmodified carboxymethyl dextran without goat anti-mouse IgG in flow cell 1 and 3 was used as the reference surface. For kinetic analysis, rate equations derived from the 1:1 Langmuir binding model were fitted simultaneously to association and dissociation phases of all eight injections (using global fit analysis) with the use of Biaevaluation 4.0.1 software. Purified antibodies or DVD-Ig proteins were diluted in HEPES-buffered saline for capture across goat anti-mouse IgG specific reaction surfaces. Antibodies or DVD-Ig proteins to be captured as a ligand (25 μg/ml) were injected over reaction matrices at a flow rate of 5 μl/minute. The association and dissociation rate constants, kₒₙ (M⁻¹s⁻¹) and koff (s⁻¹) were determined under a continuous flow rate of 25 μl/minute. Rate constants were derived by making kinetic binding measurements at different antigen concentrations ranging from 10-200 nM. The equilibrium dissociation constant (M) of the reaction between antibodies or DVD-Ig proteins and the target antigen was then calculated from the kinetic rate constants by the following formula: KD=koff/kₒₙ. Binding was recorded as a function of time and kinetic rate constants were calculated.

[3] = target: T3, ErbB3 on the cell surface (human, UniProt P21860 20-1342); assay: flow cytometry on cells, 2 ug/mL;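 further: cells stained for 30 to 60 min on ice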
T3 construct: whole, on cells
Protocol: (§1) Stable cell lines overexpressing a cell-surface antigen of interest or human tumor cell lines were harvested from tissue culture flasks and resuspended in phosphate buffered saline (PBS) containing 5% fetal bovine serum (PBS/FBS). Prior to staining, human tumor cells were incubated on ice with (100 μl) human IgG at 5 μg/ml in PBS/FCS. 1-5×10⁵ cells were incubated with antibody or DVD-Ig (2 μg/mL) in PBS/FBS for 30-60 minutes on ice. […] After 30 minutes incubation on ice, cells were washed twice and resuspended in PBS/FBS. Fluorescence was measured using a Becton Dickinson FACSCalibur (Becton Dickinson, San Jose, Calif.).
(§2) The geometric mean is the n root of the multiplication product of n fluorescent signals (a1×a2×a3 . . . an). With log-transformed data the geometric mean is used to normalize the weighting of the data distribution.

[4] = target: T4, EGFR on the cell surface (human, UniProt P00533 25-1210); assay: flow cytometry on cells, 2 ug/mL, N-terminal VD;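 further: cells stained for 30 to 60 min on ice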
T4 construct: whole, on cells
Protocol: as §1, §2

[5] = target: T3, ErbB3 on the cell surface; assay: flow cytometry on cells, 2 ug/mL, C-terminal VD;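 further: cells stained for 30 to 60 min on ice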
Protocol: as §1, §2

[6] = target: T3, ErbB3 on the cell surface; assay: flow cytometry on cells, 2 ug/mL, N-terminal VD;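 further: cells stained for 30 to 60 min on ice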
Protocol: as §1, §2

[7] = target: T4, EGFR on the cell surface; assay: flow cytometry on cells, 2 ug/mL, C-terminal VD;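 further: cells stained for 30 to 60 min on ice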
Protocol: as §1, §2

Kd [1]: 4.9 nM | binding result [2]: no binding (tested: 10-200 nM)
B2: DVD2334 (bispecific antibody)
VH: QVQLQESGPGLVKPSEILSLTCTVSGGSISSHYWSWVRQPPGKGLEWIGYIYYSGSTNYNPSLKSRVTISVDTSKNQFSLNLSSVTAADTAVYYCARIPNYYDRSGYYPGYWYFDLWGRGTLVTVSSASTKGPQVQLQQWGAGLLKPSETLSLTCAVYGGSFSGYYWSWIRQPPGKGLEWIGEINHSGSTNYNPSLKSRVTISVETSKNQFSLKLSSVTAADTAVYYCARDKWTWYFDLWGRGTLVTVSS
VL: QAVLTQPSSLSAPPGASASLTCTLRSGFNVDSYRISWYQQKPGSPPQYLLRYKSDSDKQQGSGVPSRFSGSKDASANAGILLISGLQSEDEADYYCMIWHSSAWVFGGGTKLTVLRQPKAAPDIEMTQSPDSLAVSLGERATINCRSSQSVLYSSSNRNYLAWYQQNPGQPPKLLIYWASTRESGVPDRFSGSGSGTDFTLTISSLQAEDVAVYYCQQYYSTPRTFGQGTKVEIK
notes: DVD-Ig, outer AB034 / inner AB062

GEO MEAN [4]: 519 | GEO MEAN [5]: 20.6
B6: DVD2292 (bispecific antibody)
VH: EVQLVESGGGLVQPGGSLRLSCAASGFSLTNYGVHWVRQAPGKGLEWLGVGWSGGNTDYNTPFTSRLTINKDNSKNTVYLQMNSLRAEDTAVYYCARALTWYDYEFAYWGQGTLVTVSSASTKGPEVQLVESGGGLVQPGGSLRLSCAASGFTFSIYSMNWVRQAPGKGLEWVSYISSSSSTIYYADSVKGRFTISRDNAKNSLYLQMNSLRDEDTAVYYCARDRGDFDAFDIWGQGTMVTVSS
VL: DILLTQSPGTLSLSPGERATLSCRASQSIYTNIHWYQQKPGQAPRLLIKYASESISGIPDRFSGSGSGTDFTLTISRLEPEDFAVYYCQQNLNWPTTFGQGTKLEIKRTVAAPDIQMTQSPSSLSASVGDRVTITCQASQDITNYLNWYQQKPGKAPKLLIYDASNLETGVPSRFSGSGSGTDFTFTISSLQPEDIATYNCQQCENFPITFGQGTRLEIK
notes: DVD-Ig, outer AB400 / inner AB063

GEO MEAN [4]: 618 | GEO MEAN [5]: 15
B8: DVD2294 (bispecific antibody)
VH: EVQLVESGGGLVQPGGSLRLSCAASGFSLTNYGVHWVRQAPGKGLEWLGVGWSGGNTDYNTPFTSRLTINKDNSKNTVYLQMNSLRAEDTAVYYCARALTWYDYEFAYWGQGTLVTVSSASTKGPEVQLLESGGGLVQPGGSLRLSCAASGFTFSHYVMAWVRQAPGKGLEWVSSISSSGGWTLYADSVKGRFTISRDNSKNTLYLQMNSLRAEDTAVYYCTRGLKMATIFDYWGQGTLVTVSS
VL: DILLTQSPGTLSLSPGERATLSCRASQSIYTNIHWYQQKPGQAPRLLIKYASESISGIPDRFSGSGSGTDFTLTISRLEPEDFAVYYCQQNLNWPTTFGQGTKLEIKRTVAAPQSALTQPASVSGSPGQSITISCTGTSSDVGSYNVVSWYQQHPGKAPKLIIYEVSQRPSGVSNRFSGSKSGNTASLTISGLQTEDEADYYCCSYAGSSIFVIFGGGTKVTVL
notes: DVD-Ig, outer AB400 / inner AB116

GEO MEAN [6]: 80 | GEO MEAN [7]: 317
B9: DVD2295 (bispecific antibody)
VH: EVQLLESGGGLVQPGGSLRLSCAASGFTFSHYVMAWVRQAPGKGLEWVSSISSSGGWTLYADSVKGRFTISRDNSKNTLYLQMNSLRAEDTAVYYCTRGLKMATIFDYWGQGTLVTVSSASTKGPEVQLVESGGGLVQPGGSLRLSCAASGFSLTNYGVHWVRQAPGKGLEWLGVGWSGGNTDYNTPFTSRLTINKDNSKNTVYLQMNSLRAEDTAVYYCARALTWYDYEFAYWGQGTLVTVSS
VL: QSALTQPASVSGSPGQSITISCTGTSSDVGSYNVVSWYQQHPGKAPKLIIYEVSQRPSGVSNRFSGSKSGNTASLTISGLQTEDEADYYCCSYAGSSIFVIFGGGTKVTVLGQPKAAPDILLTQSPGTLSLSPGERATLSCRASQSIYTNIHWYQQKPGQAPRLLIKYASESISGIPDRFSGSGSGTDFTLTISRLEPEDFAVYYCQQNLNWPTTFGQGTKLEIK
notes: DVD-Ig, outer AB116 / inner AB400

GEO MEAN [4]: 490 | GEO MEAN [5]: 16.6
B10: DVD2296 (bispecific antibody)
VH: EVQLVESGGGLVQPGGSLRLSCAASGFSLTNYGVHWVRQAPGKGLEWLGVGWSGGNTDYNTPFTSRLTINKDNSKNTVYLQMNSLRAEDTAVYYCARALTWYDYEFAYWGQGTLVTVSSASTKGPQVQLQQWGAGLLKPSETLSLTCAVYGGSFSGYYWSWIRQPPGKGLEWIGEINHSGSTNYNPSLKSRVTISVETSKNQFSLKLSSVTAADTAVYYCARDKWTWYFDLWGRGTLVTVSS
VL: DILLTQSPGTLSLSPGERATLSCRASQSIYTNIHWYQQKPGQAPRLLIKYASESISGIPDRFSGSGSGTDFTLTISRLEPEDFAVYYCQQNLNWPTTFGQGTKLEIKRTVAAPDIEMTQSPDSLAVSLGERATINCRSSQSVLYSSSNRNYLAWYQQNPGQPPKLLIYWASTRESGVPDRFSGSGSGTDFTLTISSLQAEDVAVYYCQQYYSTPRTFGQGTKVEIK
notes: DVD-Ig, outer AB400 / inner AB062

More lines, now with the values behind:

B1: DVD2322 (bispecific antibody)
VH: EVQLVQSGGGLVKPGGSLRLSCAASGFTFSSYAMHWVRQAPGKGLEWVAVISYDGSNKYYADSVKGRFTISRDNSKNTLYLQMNSLRAEDTAVYYCARFSGWPNNYYYYGMDVWGQGTTVTVSSASTKGPQVQLQQWGAGLLKPSETLSLTCAVYGGSFSGYYWSWIRQPPGKGLEWIGEINHSGSTNYNPSLKSRVTISVETSKNQFSLKLSSVTAADTAVYYCARDKWTWYFDLWGRGTLVTVSS
VL: DVVMTQSPLSLPVTPGEPASISCRSSQSLLHSNGFNYVDWYLQKPGQSPHLLIYFGSYRASGVPDRFSGSGSGTDFTLKISRVEAEDVGVYYCMQALQTPPWTFGQGTKVEIRRTVAAPDIEMTQSPDSLAVSLGERATINCRSSQSVLYSSSNRNYLAWYQQNPGQPPKLLIYWASTRESGVPDRFSGSGSGTDFTLTISSLQAEDVAVYYCQQYYSTPRTFGQGTKVEIK
notes: DVD-Ig, outer AB005 / inner AB062
Kd [1]: 17 nM | koff [1]: 0.00087 s⁻¹ | kon [1]: 51000 M⁻¹ s⁻¹ | binding result [2]: no binding (tested: 10-200 nM)

B3: AB063 (antibody, V domains shown)
VH: EVQLVESGGGLVQPGGSLRLSCAASGFTFSIYSMNWVRQAPGKGLEWVSYISSSSSTIYYADSVKGRFTISRDNAKNSLYLQMNSLRDEDTAVYYCARDRGDFDAFDIWGQGTMVTVSS
VL: DIQMTQSPSSLSASVGDRVTITCQASQDITNYLNWYQQKPGKAPKLLIYDASNLETGVPSRFSGSGSGTDFTFTISSLQPEDIATYNCQQCENFPITFGQGTRLEIKR
notes: parent antibody
GEO MEAN [3]: 128

B4: AB062 (antibody, V domains shown)
VH: QVQLQQWGAGLLKPSETLSLTCAVYGGSFSGYYWSWIRQPPGKGLEWIGEINHSGSTNYNPSLKSRVTISVETSKNQFSLKLSSVTAADTAVYYCARDKWTWYFDLWGRGTLVTVSS
VL: not shown
notes: parent antibody
GEO MEAN [3]: 132

B5: AB067 (antibody, V domains shown)
VH: EVQLLESGGGLVQPGGSLRLSCAASGFTFSHYVMAWVRQAPGKGLEWVSSISSSGGWTLYADSVKGRFTISRDNSKNTLYLQMNSLRAEDTAVYYCTRGLKMATIFDYWGQGTLVTVSS
VL: QSALTQPASVSGSPGQSITISCTGTSSDVGSYNVVSWYQQHPGKAPKLIIYEVSQRPSGVSNRFSGSKSGNTASLTISGLQTEDEADYYCCSYAGSSIFVIFGGGTKVTVLG
notes: parent antibody
GEO MEAN [3]: 127

B7: DVD2293 (bispecific antibody)
VH: EVQLVESGGGLVQPGGSLRLSCAASGFTFSIYSMNWVRQAPGKGLEWVSYISSSSSTIYYADSVKGRFTISRDNAKNSLYLQMNSLRDEDTAVYYCARDRGDFDAFDIWGQGTMVTVSSASTKGPEVQLVESGGGLVQPGGSLRLSCAASGFSLTNYGVHWVRQAPGKGLEWLGVGWSGGNTDYNTPFTSRLTINKDNSKNTVYLQMNSLRAEDTAVYYCARALTWYDYEFAYWGQGTLVTVSS
VL: DIQMTQSPSSLSASVGDRVTITCQASQDITNYLNWYQQKPGKAPKLLIYDASNLETGVPSRFSGSGSGTDFTFTISSLQPEDIATYNCQQCENFPITFGQGTRLEIKRTVAAPDILLTQSPGTLSLSPGERATLSCRASQSIYTNIHWYQQKPGQAPRLLIKYASESISGIPDRFSGSGSGTDFTLTISRLEPEDFAVYYCQQNLNWPTTFGQGTKLEIK
notes: DVD-Ig, outer AB063 / inner AB400
GEO MEAN [6]: 135

B11: DVD2297 (bispecific antibody)
VH: QVQLQQWGAGLLKPSETLSLTCAVYGGSFSGYYWSWIRQPPGKGLEWIGEINHSGSTNYNPSLKSRVTISVETSKNQFSLKLSSVTAADTAVYYCARDKWTWYFDLWGRGTLVTVSSASTKGPEVQLVESGGGLVQPGGSLRLSCAASGFSLTNYGVHWVRQAPGKGLEWLGVGWSGGNTDYNTPFTSRLTINKDNSKNTVYLQMNSLRAEDTAVYYCARALTWYDYEFAYWGQGTLVTVSS
VL: DIEMTQSPDSLAVSLGERATINCRSSQSVLYSSSNRNYLAWYQQNPGQPPKLLIYWASTRESGVPDRFSGSGSGTDFTLTISSLQAEDVAVYYCQQYYSTPRTFGQGTKVEIKRTVAAPDILLTQSPGTLSLSPGERATLSCRASQSIYTNIHWYQQKPGQAPRLLIKYASESISGIPDRFSGSGSGTDFTLTISRLEPEDFAVYYCQQNLNWPTTFGQGTKLEIK
notes: DVD-Ig, outer AB062 / inner AB400
GEO MEAN [6]: 135 | GEO MEAN [7]: 106

B12: DVD2332 (bispecific antibody)
VH: QVQLQESGPGLVKPSEILSLTCTVSGGSISSHYWSWVRQPPGKGLEWIGYIYYSGSTNYNPSLKSRVTISVDTSKNQFSLNLSSVTAADTAVYYCARIPNYYDRSGYYPGYWYFDLWGRGTLVTVSSASTKGPEVQLLESGGGLVQPGGSLRLSCAASGFTFSHYVMAWVRQAPGKGLEWVSSISSSGGWTLYADSVKGRFTISRDNSKNTLYLQMNSLRAEDTAVYYCTRGLKMATIFDYWGQGTLVTVSS
VL: QAVLTQPSSLSAPPGASASLTCTLRSGFNVDSYRISWYQQKPGSPPQYLLRYKSDSDKQQGSGVPSRFSGSKDASANAGILLISGLQSEDEADYYCMIWHSSAWVFGGGTKLTVLRQPKAAPQSALTQPASVSGSPGQSITISCTGTSSDVGSYNVVSWYQQHPGKAPKLIIYEVSQRPSGVSNRFSGSKSGNTASLTISGLQTEDEADYYCCSYAGSSIFVIFGGGTKVTVL
notes: DVD-Ig, outer AB034 / inner AB116
binding result [1]: no binding (tested: 10-200 nM) | binding result [2]: no binding (tested: 10-200 nM)
